From the Human Domainome abundance scans (Beltran et al. 2025)
± gives the uncertainty stated by the source.

B1: Transcription factor SOX-11, residues 50 to 117; numbered along this chain, P35716 (parent)
chain: KRPMNAFMVWSKIERRKIMEQSPDMHNAEISKRLGKRWKMLKDSEKIPFIREAERLRLKHMADYPDYK

Variants of: B1
Assay: abundance fitness (aPCA) (normalised: wild type 0, dead -1); higher = more abundant; growth selection in yeast, the domain comes from the species named
Conditions: Homo sapiens

Variant	abundance fitness
E45C	-0.548 ± 0.085
E45P	-0.918 ± 0.2
K68N	0.163 ± 0.33
K68T	-0.139 ± 0.37
K68S	-0.093 ± 0.33
K68C	0.354 ± 0.28
E29S	-0.638 ± 0.07
E29P	-0.866 ± 0.22
E29L	-0.798 ± 0.093
E29K	-0.363 ± 0.3
D24A	-0.093 ± 0.069
D24P	-0.836 ± 0.15
S44K	-0.492 ± 0.35
S44M	-0.362 ± 0.2
S44N	-0.29 ± 0.075
S44E	0.274 ± 0.17
S44W	-0.037 ± 0.13
M61P	0.008 ± 0.078
M61Y	-0.096 ± 0.052
M61I	0.011 ± 0.048
M61H	-0.086 ± 0.06

Variant	abundance fitness
M61K	-0.205 ± 0.18
M61S	0.047 ± 0.048
M61R	0.033 ± 0.065
R16L	-0.015 ± 0.065
R16T	-0.212 ± 0.075
R16H	-0.001 ± 0.069
R16P	-0.089 ± 0.1
R16D	-0.036 ± 0.075
Y67M	0.222 ± 0.27
Y67S	0.175 ± 0.073
Y67R	-0.163 ± 0.1
Y67A	0.149 ± 0.14
Y67L	0.098 ± 0.083
Y67D	0.283 ± 0.056
M40C	-0.191 ± 0.053
M40L	0.011 ± 0.05
M40T	-0.05 ± 0.075
M40I	-0.605 ± 0.067
S22M	-0.302 ± 0.12
S22H	0.052 ± 0.062
S22I	-0.539 ± 0.066

Variant	abundance fitness
S22G	-0.587 ± 0.075
S22T	-0.072 ± 0.064
S22V	-0.442 ± 0.064
S22E	-0.112 ± 0.11
R37Q	0.073 ± 0.14
R37L	-0.085 ± 0.053
R37F	-0.764 ± 0.072
R37I	-0.123 ± 0.051
R37P	-1.13 ± 0.23
E52W	-0.605 ± 0.14
E52H	-0.564 ± 0.078
Q21V	-0.223 ± 0.055
Q21T	-0.13 ± 0.077
Q21F	-0.661 ± 0.081
Q21C	-0.323 ± 0.055
Q21Y	-0.581 ± 0.077
Q21H	-0.194 ± 0.062
R57A	0.023 ± 0.063
R57L	-0.335 ± 0.065
R57E	0.283 ± 0.13
R57M	-0.068 ± 0.13

Variant	abundance fitness
R57H	-0.126 ± 0.067
R57V	-0.373 ± 0.066
R57W	-0.114 ± 0.1
I13H	-0.153 ± 0.078
I13V	-0.128 ± 0.054
I13N	-0.372 ± 0.059
I13A	-0.135 ± 0.068
I13C	-0.407 ± 0.067
I13F	-0.263 ± 0.059
S31A	0.143 ± 0.056
S31W	-0.3 ± 0.12
S31M	-0.333 ± 0.14
S31E	0.489 ± 0.11
S31C	-0.2 ± 0.074
S31N	0.195 ± 0.054
S31Y	-0.262 ± 0.067
L58V	-0.101 ± 0.052
L58Y	-0.195 ± 0.055
L58S	-0.047 ± 0.046
L58T	-0.011 ± 0.071
L58G	-0.076 ± 0.054
